Assay results reported in patent publication US20240252686A1 (SKYLINE THERAPEUTICS, published 2024).
Each block holds one binder with its values, some of them ahead of it.

How the values were obtained:
[1] = target: T1, VEGFA-165 (R&D systems 293-VE/CF) (human, UniProt P15692-4 27-191); experiment: competitive ELISA as in Example 7: inhibition of VEGFR2/KDR Fc binding to coated VEGFA-165
T1 construct: Coated on ELISA plates or added in solution to reporter cells; also called human VEGF; human VEGFA
Experimental: After removing the blocker, the detection antibody (rabbit anti-human FC HRP, Thermo) diluted 1:5000 with the blocking buffer, and added 50 μl/well incubated at RT for 1h with 250 rpm gentle shaking. After washing the ELISA plate with 1×TBST for 3 times, the TMB substrate was added the plate (50 μl/well); after the incubation at RT for 5-10 min, 2M H₂SO₄ was added to stop the TMB reaction. OD450 and OD525 of the ELISA plate were detected.
The mono-valent and bi-valent Nb24s in the supernatants were quantified by western blot as described in Example 2, and diluted to a series of concentrations.

[2] = target: T1, VEGFA-165 (R&D systems 293-VE/CF); experiment: ELISA as in Example 5, VEGFA-165 coated, anti-HA detection
Experimental: (§1) After removing the blocker, the primary antibody (rabbit anti-HA, Thermo, PA1-985) was diluted (1:5000) with the blocking buffer (StartingBlock™ T20 (TBS) Blocking Buffer, Catalog number: 37543 of Thermo Fisher Scientific), and added to ELISA plate (50 μl/well), followed by the incubation at RT for 1h with 250 rpm gentle shaking. After washing with 1×TBST buffer for 3 times, the secondary antibody (Goat anti-rabbit-HRP, Invitrogen, 3146) was diluted (1:5000) with the blocking buffer, and added to the ELISA plate (50 μl/well), followed by the incubation at RT for 1h with gentle shaking. After washing the ELISA plate with 1×TBST for 3 times, the TMB substrate (Thermo Scientific, REF34028) was added the plate (50 μl/well); after the incubation at RT for 5-10 min, 2M H₂SO₄ was added to stop the TMB reaction. OD450 and OD525 of the ELISA plate were detected.

[3] = target: T1, VEGFA-165 (R&D systems 293-VE/CF); experiment: ELISA, VEGFA-165 coated, supernatant, anti-HA detection
Experimental: as §1

T1 sequence (P15692 other isoform, or with tags, fused parts or gaps limits assumed): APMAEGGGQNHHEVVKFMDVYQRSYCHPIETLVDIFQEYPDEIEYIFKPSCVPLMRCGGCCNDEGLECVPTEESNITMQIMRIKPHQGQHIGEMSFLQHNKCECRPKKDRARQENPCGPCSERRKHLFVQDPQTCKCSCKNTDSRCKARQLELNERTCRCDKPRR

B2: bi-valent Nb24, product expressed by pGCB108-ITR130-AMDF1Nb24-5-(G4S)3-Nb24-5-HA (VHH)
chain: EVQLQESGGGLVQPGGSLRLSCTASGFTFDDPDVGWFRQAPGNECELVSTISKDGSTYYTDSVKGRFTISRDYAKNTVYLQMNSLRAEDTAVYYCAADSNPIAPIRTCLGWYNYWGQGTLVTVSSGGGGSGGGGSGGGGSEVQLQESGGGLVQPGGSLRLSCTASGFTFDDPDVGWFRQAPGNECELVSTISKDGSTYYTDSVKGRFTISRDYAKNTVYLQMNSLRAEDTAVYYCAADSNPIAPIRTCLGWYNYWGQGTLVTVSSYPYDVPDYA
notes: Two copies of Nb24 in a single polypeptide; supernatant of transfected Expi293 cells; also called 24-5-G4S3-24-5
EC50 [2]: 346 nM

B4: bi-valent Nb24, product expressed by pGCB108-ITR130-AMDF1Nb24-5-(G4S)2-Nb24-7-HA (VHH)
chain: EVQLQESGGGLVQPGGSLRLSCTASGFTFDDPDVGWFRQAPGNECELVSTISKDGSTYYTDSVKGRFTISRDYAKNTVYLQMNSLRAEDTAVYYCAADSNPIAPIRTCLGWYNYWGQGTLVTVSSGGGGSGGGGSEVQLQESGGGLVQPGGSLRLSCTASGFTFDDPDVGWFRQAPGNECELVSTISKDGSTYYTDSVKGRFTISRDYAKNTVYLQMNSLRAEDTAVYYCAADSNPIAPIRTCLGWYNYWGQGTLVTVSSYPYDVPDYA
notes: also called 24-5-G4S2-24-7
IC50 [1]: 25.6 nM
fold better IC50 than mono-valent Nb24 [1]: 5 fold

B5: bi-valent Nb24, product expressed by pGCB108-ITR130-AMDF1Nb24-5-(G4S)2-Nb24-5-HA (VHH)
chain: B4 chain
notes: Two copies of Nb24 in a single polypeptide; supernatant of transfected Expi293 cells; also called 24-5-G4S2-24-5
EC50 [2]: 376 nM

B7: bi-valent Nb24, product expressed by pGCB108-ITR130-AMDF1Nb24-5-(G4S)1-Nb24-5-HA (VHH)
chain: EVQLQESGGGLVQPGGSLRLSCTASGFTFDDPDVGWFRQAPGNECELVSTISKDGSTYYTDSVKGRFTISRDYAKNTVYLQMNSLRAEDTAVYYCAADSNPIAPIRTCLGWYNYWGQGTLVTVSSGGGGSEVQLQESGGGLVQPGGSLRLSCTASGFTFDDPDVGWFRQAPGNECELVSTISKDGSTYYTDSVKGRFTISRDYAKNTVYLQMNSLRAEDTAVYYCAADSNPIAPIRTCLGWYNYWGQGTLVTVSSYPYDVPDYA
notes: Two copies of Nb24 in a single polypeptide; supernatant of transfected Expi293 cells; also called 24-5-G4S1-24-5
EC50 [2]: 400 nM

Now from value to binder:

IC50 [1]: 132 nM
B1: mono-valent Nb24 with HA tag, product expressed by pGCB108-ITR130-AMDF1huNb24-5-hGHpA (VHH)
VHH: EVQLQESGGGLVQPGGSLRLSCTASGFTFDDPDVGWFRQAPGNECELVSTISKDGSTYYTDSVKGRFTISRDYAKNTVYLQMNSLRAEDTAVYYCAADSNPIAPIRTCLGWYNYWGQGTLVTVSS
notes: Used as supernatant of transfected Expi293 cells, detected by anti-HA; The junction between Nb24 and the HA tag is not spelled out; also called HuNb24-5-HA; Nb24-5-HA

binding result [3]: binds
B3: Beovu-scFv with HA tag, product expressed by pGCB108-ITR130-AMDF1-Beovu-scFv (scFv)
scFv: EIVMTQSPSTLSASVGDRVIITCQASEIIHSWLAWYQQKPGKAPKLLIYLASTLASGVPSRFSGSGSGAEFTLTISSLQPDDFATYYCQNVYLASTNGANFGQGTKLTVLGGGGGSGGGGSGGGGSGGGGSEVQLVESGGGLVQPGGSLRLSCTASGFSLTDYYYMTWVRQAPGKGLEWVGFIDPDDDPYYATWAKGRFTISRDNSKNTLYLQMNSLRAEDTAVYYCAGGDHNSGWGLDIWGQGTLVTVSSYPYDVPDYA
notes: Benchmark anti-VEGF scFv; supernatant of transfected Expi293 cells; also called Beovu-scFv-HA; F1F3-HA

EC50 [2]: 464 nM
B6: bi-valent Nb24, product expressed by pGCB108-ITR130-AMDF1Nb24-5-(G4S)4-Nb24-5-HA (VHH)
chain: EVQLQESGGGLVQPGGSLRLSCTASGFTFDDPDVGWFRQAPGNECELVSTISKDGSTYYTDSVKGRFTISRDYAKNTVYLQMNSLRAEDTAVYYCAADSNPIAPIRTCLGWYNYWGQGTLVTVSSGGGGSGGGGSGGGGSGGGGSEVQLQESGGGLVQPGGSLRLSCTASGFTFDDPDVGWFRQAPGNECELVSTISKDGSTYYTDSVKGRFTISRDYAKNTVYLQMNSLRAEDTAVYYCAADSNPIAPIRTCLGWYNYWGQGTLVTVSSYPYDVPDYA
notes: Two copies of Nb24 in a single polypeptide; supernatant of transfected Expi293 cells; also called 24-5-G4S4-24-5
